Test results as given in article PMC3816987 (Journal of molecular recognition : JMR, 2010).

T1: GST fusion protein of Tulp1-N (1M-298Q) (mouse, UniProt Q9Z273 1-298)
T1 sequence (looked up): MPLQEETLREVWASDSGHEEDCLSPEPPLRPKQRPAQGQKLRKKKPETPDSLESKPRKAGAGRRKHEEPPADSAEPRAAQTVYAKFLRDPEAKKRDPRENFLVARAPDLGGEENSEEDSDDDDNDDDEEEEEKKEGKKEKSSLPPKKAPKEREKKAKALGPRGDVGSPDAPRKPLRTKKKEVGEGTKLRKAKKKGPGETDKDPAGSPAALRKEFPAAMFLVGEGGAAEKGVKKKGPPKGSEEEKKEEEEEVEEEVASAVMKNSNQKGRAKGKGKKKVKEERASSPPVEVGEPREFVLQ

T2: GST-free tubby-N (tubby N-terminus, 1M-242P) (mouse, UniProt P50586 1-242)
T2 sequence (looked up): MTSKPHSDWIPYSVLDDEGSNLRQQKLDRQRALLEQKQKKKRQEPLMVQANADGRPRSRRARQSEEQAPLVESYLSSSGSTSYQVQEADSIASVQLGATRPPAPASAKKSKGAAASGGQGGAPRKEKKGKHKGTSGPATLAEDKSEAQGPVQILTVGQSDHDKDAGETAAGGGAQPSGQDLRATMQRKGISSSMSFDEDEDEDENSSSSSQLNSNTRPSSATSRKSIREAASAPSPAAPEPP

B1: Hmg. nucleosomal binding domain 2 (Hmgn2) phage clone, 1M-56K (domain or fragment)
chain: not shown
modifications: biotin on the C-terminal biotinylation tag (E. coli BirA ligase)
B2: CCCTC-binding factor (Ctcf) phage clone, 136G-400T (domain or fragment, mouse, UniProt Q61164 136-400, looked up)
chain: GAYENEVSKEGLAESEPMICHTLPLPEGFQVVKVGANGEVETLEQGELPPQEDSSWQKDPDYQPPAKKTKKTKKSKLRYTEEGKDVDVSVYDFEEEQQEGLLSEVNAEKVVGNMKPPKPTKIKKKGVKKTFQCELCSYTCPRRSNLDRHMKSHTDERPHKCHLCGRAFRTVTLLRNHLNTHTGTRPHKCPDCDMAFVTSGELVRHRRYKHTHEKPFKCSMCDYASVEVSKLKRHIRSHTGERPFQCSLCSYASRDTYKLKRHMRT
modifications: biotin on the C-terminal biotinylation tag (E. coli BirA ligase)
B3: Tubby like protein 1 (Tulp1) phage clone, 125D-243E (domain or fragment, mouse, UniProt Q9Z273 125-243, looked up)
chain: DDDEEEEEKKEGKKEKSSLPPKKAPKEREKKAKALGPRGDVGSPDAPRKPLRTKKKEVGEGTKLRKAKKKGPGETDKDPAGSPAALRKEFPAAMFLVGEGGAAEKGVKKKGPPKGSEEE
modifications: biotin on the C-terminal biotinylation tag (E. coli BirA ligase)
B4: IQ motif containing GTPase activating protein 2 (Iqgap2) phage clone, 1232E-1368E (domain or fragment, mouse, UniProt Q3UQ44 1232-1368, looked up)
chain: EKSDLLNELLESLGEVPTVESFLGEGAVDPNDPNKENTLNQLSKTEISLSLTSKYDVKDGEAVDGRSLMIKTKKLIIDVTRNQPGSTLTEILETPATGQQELEHAKDMESRAVVDSRTPEEGKQSQAVIEDARLPLE
modifications: biotin on the C-terminal biotinylation tag (E. coli BirA ligase)
B5: Regulated endocrine-specific protein 18 (Resp18) phage clone, 68V-134K (domain or fragment, mouse, UniProt P47939-1 68-134, looked up)
chain: VPEGMFWADDIAYELMTKKVEHLSRLHPQYPCRKDMKAVSPTANAGVRSKQEEKLQLLSPQKSPTVK-{biotinylation tag(biotin)}

Key:
[1] = target: T1, GST fusion protein of Tulp1-N (1M-298Q); test: phage binding assay
[2] = target: T2, GST-free tubby-N (tubby N-terminus, …); test: phage binding assay

Binder | binding specificity, clonal phage vs. control phage [1] [X] | binding specificity, clonal phage vs. control phage [2] [X]
B1 | ~37.8 | ~33.4
B2 | ~7.7 | ~117
B3 | ~32.8 | ~49
B4 |  | ~53.2
B5 |  | ~10.3
